# Results: the RNAGym collection of RNA variant scans (doi:10.7554/elife.80360)
# B1: CPEB3 Ribozyme (parent)
# chain: GGGGGCCACAGCAGAAGCGUUCACGUCGCGGCCCCUGUCAGAUUCUGGUGAAUCUGCGAAUUCUGCUGU
# Variants of: B1
# Experiment: self-cleavage, relative activity (ratio to wild type); higher = more cleavage; co-transcriptional
row,Variant,self-cleavage
1,C18U G19C,0.168
2,C18U G19U,0.142
3,C18U G65C,0.363
4,C18U G65A,0.332
5,C18U C45A,0.792
6,G19C U26G,0.109
7,G19C U26C,0.153
8,G19C U26A,0.13
9,G19C U46C,0.159
10,G19C U46A,0.177
11,C18U G47C,0.911
12,C18U G47A,0.975
13,C18U G47U,0.928
14,C18U U69C,1.04
15,C18U U69G,1
16,C18G U61C,0.209
17,C18G U61G,0.144
18,C18U U61G,0.312
19,C18U U61A,0.467
20,C18U U61C,0.267
21,G19C U53A,0.224
22,G19C U53G,0.158
23,C18U U44C,0.617
24,C18U U44G,0.726

row,Variant,self-cleavage
1,C18U U44A,0.727
2,G19C U38G,0.185
3,C18G U55A,0.126
4,C18G U55C,0.198
5,G19A G68U,0.232
6,C18G U53G,0.199
7,C18G U53C,0.0868
8,C18G U53A,0.177
9,C18U C39U,0.551
10,C18U C39A,0.387
11,C18G U62C,0.122
12,C18G U62A,0.142
13,G19C C32U,0.198
14,G19C C32A,0.146
15,G19A A42U,0.191
16,G19A C63G,0.152
17,G19A C63A,0.0882
18,G19C U20G,0.126
19,G19C U20C,0.19
20,G19C U20A,0.109
21,G19A U55G,0.099
22,G19A U55A,0.185
23,G19A U55C,0.218
24,C18U A23U,0.877

row,Variant,self-cleavage
1,C18U A23G,0.715
2,C18U A23C,0.746
3,G19A A23G,0.131
4,G19A A23C,0.25
5,G19A A23U,0.154
6,C18G U64G,0.159
7,C18G U64A,0.228
8,C18G U64C,0.1
9,G19U A59U,0.158
10,G19U A59G,0.66
11,G19A G65C,0.127
12,G19A G65U,0.159
13,G19A G65A,0.0987
14,C18U A51G,0.853
15,C18U A51U,0.851
16,C18G U67A,0.205
17,C18G U67C,0.186
18,C18U U46G,0.854
19,C18U U46C,0.808
20,C18U U46A,0.964
21,G19A A51U,0.245
22,G19C U67G,0.159
23,G19C U67A,0.0765
24,G19A U43G,0.245

row,Variant,self-cleavage
1,G19C C54G,0.163
2,G19C C54U,0.113
3,G19C C54A,0.158
4,G19C G31C,0.153
5,G19C G31A,0.132
6,G19C G31U,0.217
7,C18U U49G,0.894
8,C18U C27U,0.121
9,C18U C27G,0.194
10,C18U C27A,0.198
11,C18U G31C,0.178
12,C18U G31U,0.295
13,C18U G31A,0.313
14,G19C A52U,0.189
15,G19C A52G,0.134
16,G19C A52C,0.195
17,G19A U64C,0.159
18,G19A G41C,0.187
19,G19A G41U,0.142
20,G19A G41A,0.153
21,C18U U36C,0.562
22,C18U U36A,0.109
23,G19A C57G,0.137
24,G19A C57U,0.178

row,Variant,self-cleavage
1,G19A C57A,0.133
2,G19U A42C,0.269
3,G19U A42U,0.327
4,G19U A42G,0.326
5,G19C C57A,0.158
6,G19C C57G,0.132
7,C18U G50A,0.906
8,C18U G56A,0.706
9,G19C A23C,0.181
10,G19C A23U,0.119
11,G19A C22G,0.148
12,G19A C22U,0.196
13,G19A G28C,0.216
14,G19A G28U,0.132
15,G19A G28A,0.152
16,G19A G48A,0.144
17,G19A G48U,0.227
18,G19A C32A,0.174
19,G19A U36G,0.165
20,G19A U36A,0.0999
21,G19C G68U,0.13
22,G19C G68A,0.201
23,G19C G68C,0.187
24,C18U U43G,0.357

row,Variant,self-cleavage
1,C18U U43C,0.768
2,G19C G37C,0.183
3,G19C G37U,0.143
4,G19C G37A,0.225
5,G19A C34U,0.181
6,G19A C34A,0.201
7,G19A U38C,0.16
8,G19A U38A,0.165
9,G19C G65C,0.12
10,G19C G65U,0.133
11,G19C G65A,0.127
12,C18G U69G,0.252
13,C18G U69A,0.26
14,C18G U69C,0.352
15,G19A A40U,0.147
16,G19A A40C,0.123
17,G19A U46C,0.103
18,G19A U46G,0.151
19,G19C C35A,0.154
20,G19C C35G,0.149
21,C18U C63U,0.678
22,C18U C63A,0.284
23,C18U C63G,0.306
24,G19A C24A,0.124

row,Variant,self-cleavage
1,G19A C24G,0.159
2,G19A C24U,0.16
3,G19C U69G,0.231
4,G19C U69C,0.357
5,C18U G28A,0.909
6,C18U G37A,0.193
7,C18U G37C,0.13
8,G19C A60C,0.15
9,G19A U67C,0.177
10,G19A U67G,0.205
11,G19A C54U,0.134
12,G19A C54A,0.163
13,G19A C45G,0.194
14,G19A U44G,0.158
15,G19A U44A,0.172
16,G19C G50A,0.147
17,G19C G50U,0.186
18,C18U G25U,0.17
19,C18U G25C,0.153
20,C18U G25A,0.157
21,G19C,0.154
22,G19U,0.644
23,G19A,0.167
